Laboratory results reported in patent US20250223336A1.

Tests used:
[1] = biological target: SARS-COV-2 spike protein on virus-like particles (VLPs) (SARS-COV-2) (UniProt P0DTC2); assay: cell-based or functional assay
[2] = biological target: wild type SARS-COV-2 spike receptor binding domain (RBD), 6His-Strep-TEV-RBD construct, refolded from E. coli (SARS-COV-2) (UniProt P0DTC2)

**Q.** How did the reduction in FITC signal (VLP binding to A549 cells) [1] turn out when “LCB3 de novo designed miniprotein (from Cao et al., synthesised through recombinant expression in E. coli) (designed binder)” was run?
**A.** Its reduction in FITC signal (VLP binding to A549 cells) is 84%.

**Q.** What about the Kd [2] of the same substance?
**A.** The Kd was 0.926 µM.

**Q.** And the Response Amplitude [2]?
**A.** Its Response Amplitude is 73.5.
